Laboratory results taken from US20220242957A1 (MARENGO THERAPEUTICS, published 2022).

How the values were obtained:
[1] = biological target: T1, human CSF1R-Fc ECD (human, UniProt P07333 20-517); experiment: ELISA, plate coated with 2 µg/mL human CSF1R, monovalent antibody titrated, anti-human Fc HRP
T1 construct: extracellular domain; not shown: Fc part of the coated reagent, not described
Procedure: Microplates were separately coated with 2 μg/mL of human or cyno CSF1R in 100 μL and blocked with 2% BSA. Serial dilutions of unlabeled monovalent human antibodies (11 points, 3-fold dilutions, 400 nM to […]) were transferred to the coated and blocked plates at 75 μL/well and incubated for 1 hr at room temperature. Plates were washed three times and incubated for 30 mins with anti-human Fc horseradish peroxidase conjugate followed by addition of TMB, a substrate of HRP. The plates were developed for 5 mins, stopped with 1M HCL and read at a wavelength of 450 nm.

[2] = biological target: T2, human CSF1R (human, UniProt P07333 20-972); experiment: flow cytometry on HEK-293T cells stably transduced with human CSF1R; anti-human Fc APC; percent APC positive
T2 construct: whole, on cells; also called hCSF1R
T2 sequence (P07333 20-972): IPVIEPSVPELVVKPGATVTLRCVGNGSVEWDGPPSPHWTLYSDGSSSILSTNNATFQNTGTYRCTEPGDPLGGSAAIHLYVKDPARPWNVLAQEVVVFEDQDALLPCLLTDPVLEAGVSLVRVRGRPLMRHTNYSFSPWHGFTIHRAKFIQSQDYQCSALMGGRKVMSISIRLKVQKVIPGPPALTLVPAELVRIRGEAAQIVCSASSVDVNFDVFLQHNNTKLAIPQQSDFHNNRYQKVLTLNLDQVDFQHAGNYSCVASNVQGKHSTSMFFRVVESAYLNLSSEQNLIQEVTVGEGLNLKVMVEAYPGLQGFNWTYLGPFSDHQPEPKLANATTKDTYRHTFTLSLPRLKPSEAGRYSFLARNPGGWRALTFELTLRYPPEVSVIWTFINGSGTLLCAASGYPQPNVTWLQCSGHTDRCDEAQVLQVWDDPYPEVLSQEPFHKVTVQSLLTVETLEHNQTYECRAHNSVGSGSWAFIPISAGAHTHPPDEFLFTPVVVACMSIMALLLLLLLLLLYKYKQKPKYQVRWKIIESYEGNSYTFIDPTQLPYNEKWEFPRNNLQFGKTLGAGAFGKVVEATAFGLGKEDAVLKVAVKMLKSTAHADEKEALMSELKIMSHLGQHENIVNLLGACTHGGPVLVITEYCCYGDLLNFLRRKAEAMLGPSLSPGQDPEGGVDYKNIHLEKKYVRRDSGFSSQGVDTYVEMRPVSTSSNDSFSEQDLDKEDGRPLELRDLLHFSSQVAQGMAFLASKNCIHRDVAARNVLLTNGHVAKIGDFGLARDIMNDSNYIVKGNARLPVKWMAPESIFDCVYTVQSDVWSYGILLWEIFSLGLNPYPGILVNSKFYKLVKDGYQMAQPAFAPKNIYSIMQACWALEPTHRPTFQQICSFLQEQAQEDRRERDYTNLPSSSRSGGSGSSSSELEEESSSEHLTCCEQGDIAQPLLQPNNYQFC
Procedure: HEK-293T cells were lentivirally transduced with human CSF1R and stable cell lines were generated. Nearly all transduced cells expressed high levels of CSF1R. Cells were washed with PBS containing 0.5% BSA and 0.1% sodium azide (staining buffer) and added to 96-well V-bottom plates with 100,000 cells/well. Human anti-CSF1R monovalent antibodies were added to the cells in 2.5 fold serial dilutions and incubated for 2 hour at room temperature. The plates were washed twice with staining buffer. The secondary antibody against human Fc conjugated to APC was added at 1:200 dilution (1.5 mg/ml stock) and incubated with the cells for 1 hour at 4° C. followed by washing with staining buffer. Cells were subsequently stained with a live/dead dye to exclude any dying cells and were fixed for 10 minutes with 4% paraformaldehyde at room temperature. The plates were read on CytoFLEX LS (Beckman Coulter). Data was calculated as the percent-APC positive population.

T1 sequence (P07333 20-517): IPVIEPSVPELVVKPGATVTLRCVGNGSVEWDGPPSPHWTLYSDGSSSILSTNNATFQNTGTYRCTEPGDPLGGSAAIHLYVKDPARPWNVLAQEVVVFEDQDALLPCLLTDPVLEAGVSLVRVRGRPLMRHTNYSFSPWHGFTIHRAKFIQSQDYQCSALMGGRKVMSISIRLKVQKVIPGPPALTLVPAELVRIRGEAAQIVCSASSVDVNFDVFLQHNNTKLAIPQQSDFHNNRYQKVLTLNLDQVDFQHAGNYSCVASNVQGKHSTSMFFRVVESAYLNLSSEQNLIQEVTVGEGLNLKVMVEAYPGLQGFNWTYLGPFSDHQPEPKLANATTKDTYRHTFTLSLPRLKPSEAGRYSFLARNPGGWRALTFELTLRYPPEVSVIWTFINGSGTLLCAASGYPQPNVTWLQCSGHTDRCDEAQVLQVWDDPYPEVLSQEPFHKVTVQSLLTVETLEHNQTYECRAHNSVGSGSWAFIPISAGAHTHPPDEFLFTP

Binder | binding result [1] | binding result [2]
BIM0547 (antibody, human IgG1, lambda, Half-arm (monovalent) anti-human CSF1R antibody, three chains as BIM0542; Heavy chain entry ends in X = K or absent; also called multispecific molecule 75; aCSF1R BI117 G12-R2B half-arm antibody) heavy: EVQLVESGGGLVQPGGSLRLSCAASGFTFSNDEMNWIRQAPGKGLEWVSYITSKSSTIYYADAVKGRFTISRDNARNSLYLQMNSLRAEDTAVYYCARGVDGDFSFDYWGQGTLVTVSSASTKGPSVFPLAPSSKSTSGGTAALGCLVKDYFPEPVTVSWNSGALTSGVHTFPAVLQSSGLYSLSSVVTVPSSSLGTQTYICNVNHKPSNTKVDKRVEPKSCDKTHTCPPCPAPELLGGPSVFLFPPKPKDTLMISRTPEVTCVVVDVSHEDPEVKFNWYVDGVEVHNAKTKPREEQYNSTYRVVSVLTVLHQDWLNGKEYKCKVSNKALPAPIEKTISKAKGQPREPQVCTLPPSREEMTKNQVSLSCAVKGFYPSDIAVEWESNGQPENNYKTTPPVLDSDGSFFLVSKLTVDKSRWQQGNVFSCSVMHEALHNHYTQKSLSLSPGK light: QLVLTQPPSVSGAPGQRVTISCTGSSSNIGAGYDVHWYQQLPGTAPKLLIYGNSNRPSGVPDRFSGSKSGTSASLAITGLQAEDEADYYCQSYDSSLSEEVFGGGTKLTVLGQPKANPTVTLFPPSSEELQANKATLVCLISDFYPGAVTVAWKADGSPVKAGVETTKPSKQSNNKYAASSYLSLTPEQWKSHRSYSCQVTHEGSTVEKTVAPTECS not shown | binds | binds
BIM0549 (antibody, human IgG1, lambda, Half-arm (monovalent) anti-human CSF1R antibody, three chains as BIM0542; Heavy chain entry ends in X = K or absent; also called multispecific molecule 77; aCSF1R BI117 A6-R3B half-arm antibody) heavy: EVQLVESGGGLVQPGGSLRLSCAASGFTFSNDEMNWIRQAPGKGLEWVSYISSRSSTIYYADAVKGRFTISRDNARNSLYLQMNSLRAEDTAVYYCARSSDGSTSFDYWGQGTLVTVSSASTKGPSVFPLAPSSKSTSGGTAALGCLVKDYFPEPVTVSWNSGALTSGVHTFPAVLQSSGLYSLSSVVTVPSSSLGTQTYICNVNHKPSNTKVDKRVEPKSCDKTHTCPPCPAPELLGGPSVFLFPPKPKDTLMISRTPEVTCVVVDVSHEDPEVKFNWYVDGVEVHNAKTKPREEQYNSTYRVVSVLTVLHQDWLNGKEYKCKVSNKALPAPIEKTISKAKGQPREPQVCTLPPSREEMTKNQVSLSCAVKGFYPSDIAVEWESNGQPENNYKTTPPVLDSDGSFFLVSKLTVDKSRWQQGNVFSCSVMHEALHNHYTQKSLSLSPGK light: QLVLTQPPSVSGAPGQRVTISCTGSSSNIGAGYDVHWYQQLPGTAPKLLIYGNSNRPSGVPDRFSGSKSGTSASLAITGLQAEDEADYYCQSYDSSLSEEVFGGGTKLTVLGQPKANPTVTLFPPSSEELQANKATLVCLISDFYPGAVTVAWKADGSPVKAGVETTKPSKQSNNKYAASSYLSLTPEQWKSHRSYSCQVTHEGSTVEKTVAPTECS not shown | binds | binds
BIM0553 (antibody, human IgG1, lambda, Half-arm (monovalent) anti-human CSF1R antibody, three chains as BIM0542; Heavy chain entry ends in X = K or absent; also called multispecific molecule 81; aCSF1R BI117 C5-R3B half-arm antibody) heavy: EVQLVESGGGLVQPGGSLRLSCAASGFTFSNDEMNWIRQAPGKGLEWVSYISSRSSTIYYADAVKGRFTISRDNARNSLYLQMNSLRAEDTAVYYCARGVDGDFSFDFWGQGTLVTVSSASTKGPSVFPLAPSSKSTSGGTAALGCLVKDYFPEPVTVSWNSGALTSGVHTFPAVLQSSGLYSLSSVVTVPSSSLGTQTYICNVNHKPSNTKVDKRVEPKSCDKTHTCPPCPAPELLGGPSVFLFPPKPKDTLMISRTPEVTCVVVDVSHEDPEVKFNWYVDGVEVHNAKTKPREEQYNSTYRVVSVLTVLHQDWLNGKEYKCKVSNKALPAPIEKTISKAKGQPREPQVCTLPPSREEMTKNQVSLSCAVKGFYPSDIAVEWESNGQPENNYKTTPPVLDSDGSFFLVSKLTVDKSRWQQGNVFSCSVMHEALHNHYTQKSLSLSPGK light: QLVLTQPPSVSGAPGQRVTISCTGSSSNIGAGYDVHWYQQLPGTAPKLLIYGNSNRPSGVPDRFSGSKSGTSASLAITGLQAEDEADYYCQSYDSSLSEEVFGGGTKLTVLGQPKANPTVTLFPPSSEELQANKATLVCLISDFYPGAVTVAWKADGSPVKAGVETTKPSKQSNNKYAASSYLSLTPEQWKSHRSYSCQVTHEGSTVEKTVAPTECS not shown | binds | binds
BIM0550 (antibody, human IgG1, lambda, Half-arm (monovalent) anti-human CSF1R antibody, three chains as BIM0542; Heavy chain entry ends in X = K or absent; also called multispecific molecule 78; aCSF1R BI117 A11-R3B half-arm antibody) heavy: EVQLVESGGGLVQPGGSLRLSCAASGFTFSNDEMNWIRQAPGKGLEWVSYISSSSSTIYYADAVTGRFTISRDNARNSLYLQMNSLRAEDTAVYYCARGVDGDFSFDYWGQGTLVTVSSASTKGPSVFPLAPSSKSTSGGTAALGCLVKDYFPEPVTVSWNSGALTSGVHTFPAVLQSSGLYSLSSVVTVPSSSLGTQTYICNVNHKPSNTKVDKRVEPKSCDKTHTCPPCPAPELLGGPSVFLFPPKPKDTLMISRTPEVTCVVVDVSHEDPEVKFNWYVDGVEVHNAKTKPREEQYNSTYRVVSVLTVLHQDWLNGKEYKCKVSNKALPAPIEKTISKAKGQPREPQVCTLPPSREEMTKNQVSLSCAVKGFYPSDIAVEWESNGQPENNYKTTPPVLDSDGSFFLVSKLTVDKSRWQQGNVFSCSVMHEALHNHYTQKSLSLSPGK light: QLVLTQPPSVSGAPGQRVTISCTGSSSNIGAGYDVHWYQQLPGTAPKLLIYGNSNRPSGVPDRFSGSKSGTSASLAITGLQAEDEADYYCQSYDSSLSEEVFGGGTKLTVLGQPKANPTVTLFPPSSEELQANKATLVCLISDFYPGAVTVAWKADGSPVKAGVETTKPSKQSNNKYAASSYLSLTPEQWKSHRSYSCQVTHEGSTVEKTVAPTECS not shown | binds | binds
BIM0551 (antibody, human IgG1, lambda, Half-arm (monovalent) anti-human CSF1R antibody, three chains as BIM0542; Heavy chain entry ends in X = K or absent; also called multispecific molecule 79; aCSF1R BI117 B2-R3B half-arm antibody) heavy: EVQLVESGGGLVQPGGSLRLSCAASGFTFSNDEMNWIRQAPGKGLEWVSYISSRSSTIYYADAVKGRFTISRDNARNSLYLQMNSLRAEDTAVYYCARNSDSDGSFDIWGQGTLVTVSSASTKGPSVFPLAPSSKSTSGGTAALGCLVKDYFPEPVTVSWNSGALTSGVHTFPAVLQSSGLYSLSSVVTVPSSSLGTQTYICNVNHKPSNTKVDKRVEPKSCDKTHTCPPCPAPELLGGPSVFLFPPKPKDTLMISRTPEVTCVVVDVSHEDPEVKFNWYVDGVEVHNAKTKPREEQYNSTYRVVSVLTVLHQDWLNGKEYKCKVSNKALPAPIEKTISKAKGQPREPQVCTLPPSREEMTKNQVSLSCAVKGFYPSDIAVEWESNGQPENNYKTTPPVLDSDGSFFLVSKLTVDKSRWQQGNVFSCSVMHEALHNHYTQKSLSLSPGK light: QLVLTQPPSVSGAPGQRVTISCTGSSSNIGAGYDVHWYQQLPGTAPKLLIYGNSNRPSGVPDRFSGSKSGTSASLAITGLQAEDEADYYCQSYDSSLSEEVFGGGTKLTVLGQPKANPTVTLFPPSSEELQANKATLVCLISDFYPGAVTVAWKADGSPVKAGVETTKPSKQSNNKYAASSYLSLTPEQWKSHRSYSCQVTHEGSTVEKTVAPTECS not shown | binds | binds
BIM0567 (antibody, human IgG1, lambda, Half-arm (monovalent) anti-human CSF1R antibody, three chains as BIM0542; Heavy chain entry ends in X = K or absent; also called multispecific molecule 86; aCSF1R BI117 D11-R3B half-arm antibody) heavy: EVQLVESGGGLVQPGGSLRLSCAASGFTFSNDEMNWIRQAPGKGLEWVSYISSRSSTIYYADAVKGRFTISRDNARNSLYLQMNSLRAEDTAVYYCARGVESDFSFDYWGQGTLVTVSSASTKGPSVFPLAPSSKSTSGGTAALGCLVKDYFPEPVTVSWNSGALTSGVHTFPAVLQSSGLYSLSSVVTVPSSSLGTQTYICNVNHKPSNTKVDKRVEPKSCDKTHTCPPCPAPELLGGPSVFLFPPKPKDTLMISRTPEVTCVVVDVSHEDPEVKFNWYVDGVEVHNAKTKPREEQYNSTYRVVSVLTVLHQDWLNGKEYKCKVSNKALPAPIEKTISKAKGQPREPQVCTLPPSREEMTKNQVSLSCAVKGFYPSDIAVEWESNGQPENNYKTTPPVLDSDGSFFLVSKLTVDKSRWQQGNVFSCSVMHEALHNHYTQKSLSLSPGK light: QLVLTQPPSVSGAPGQRVTISCTGSSSNIGAGYDVHWYQQLPGTAPKLLIYGNSNRPSGVPDRFSGSKSGTSASLAITGLQAEDEADYYCQSYDSSLSEEVFGGGTKLTVLGQPKANPTVTLFPPSSEELQANKATLVCLISDFYPGAVTVAWKADGSPVKAGVETTKPSKQSNNKYAASSYLSLTPEQWKSHRSYSCQVTHEGSTVEKTVAPTECS not shown | binds | binds
BIM0566 (antibody, human IgG1, lambda, Half-arm (monovalent) anti-human CSF1R antibody, three chains as BIM0542; Heavy chain entry ends in X = K or absent; also called multispecific molecule 85; aCSF1R BI117 C6-R3B half-arm antibody) heavy: EVQLVESGGGLVQPGGSLRLSCAASGFTFSNDEMNWIRQAPGKGLEWVSYISSRSSTIYYADAVKGRFTISRDNARNSLYLQMNSLRAEDTAVYYCARSGRLDGSFDYWGQGTLVTVSSASTKGPSVFPLAPSSKSTSGGTAALGCLVKDYFPEPVTVSWNSGALTSGVHTFPAVLQSSGLYSLSSVVTVPSSSLGTQTYICNVNHKPSNTKVDKRVEPKSCDKTHTCPPCPAPELLGGPSVFLFPPKPKDTLMISRTPEVTCVVVDVSHEDPEVKFNWYVDGVEVHNAKTKPREEQYNSTYRVVSVLTVLHQDWLNGKEYKCKVSNKALPAPIEKTISKAKGQPREPQVCTLPPSREEMTKNQVSLSCAVKGFYPSDIAVEWESNGQPENNYKTTPPVLDSDGSFFLVSKLTVDKSRWQQGNVFSCSVMHEALHNHYTQKSLSLSPGK light: QLVLTQPPSVSGAPGQRVTISCTGSSSNIGAGYDVHWYQQLPGTAPKLLIYGNSNRPSGVPDRFSGSKSGTSASLAITGLQAEDEADYYCQSYDSSLSEEVFGGGTKLTVLGQPKANPTVTLFPPSSEELQANKATLVCLISDFYPGAVTVAWKADGSPVKAGVETTKPSKQSNNKYAASSYLSLTPEQWKSHRSYSCQVTHEGSTVEKTVAPTECS not shown | binds | binds
BIM0555 (antibody, human IgG1, lambda, Half-arm (monovalent) anti-human CSF1R antibody, three chains as BIM0542; Heavy chain entry ends in X = K or absent; also called multispecific molecule 83; aCSF1R BI123 B6-R3B half-arm antibody) heavy: not shown light: SLVLTQPPSVSVAPGKTARITCGGNNIGSKSVHWYQQKPGQAPVLVVYDDSDRPSGIPERFSGSNSGNTATLTISRVEAGDEADYYCQVWDSSSDHVVFGGGTQLTVLGQPKANPTVTLFPPSSEELQANKATLVCLISDFYPGAVTVAWKADGSPVKAGVETTKPSKQSNNKYAASSYLSLTPEQWKSHRSYSCQVTHEGSTVEKTVAPTECS not shown | binds | binds
BIM0556 (antibody, human IgG1, lambda, Half-arm (monovalent) anti-human CSF1R antibody, three chains as BIM0542; Heavy chain entry ends in X = K or absent; also called multispecific molecule 84; aCSF1R BI123 C1-R3B half-arm antibody) heavy: not shown light: SLVLTQPPSVSVAPGKTARITCGGNNIGSKSVHWYQQKPGQAPVLVVYDDSDRPSGIPERFSGSNSGNTATLTISRVEAGDEADYYCQVWDSSSDHVVFGGGTQLTVLGQPKANPTVTLFPPSSEELQANKATLVCLISDFYPGAVTVAWKADGSPVKAGVETTKPSKQSNNKYAASSYLSLTPEQWKSHRSYSCQVTHEGSTVEKTVAPTECS not shown | binds | binds
